# In article PMC5889392, “Cryptic glucocorticoid receptor-binding sites pervade genomic NF-κB response elements”:
# B1: ICAM1 kBRE 16 bp crystal DNA (dsDNA)
# DNA 1: TTGGAAATTCCGGAGC
# DNA 2: GCTCCGGAATTTCCAA
# B2: CCL2 kBRE (dsDNA)
# DNA 1: GAGTGGGAATTTCCACTCA
# DNA 2: TGAGTGGAAATTCCCACTC
# B3: PLAU kBRE (dsDNA)
# DNA 1: CCCTGGGAATTTCCTGATA
# DNA 2: TATCAGGAAATTCCCAGGG
# B4: PLAU kBRE 16 bp crystal DNA (dsDNA)
# DNA 1: ATCAGGAAATTTCCAG
# DNA 2: CTGGAAATTTCCTGAT
# B5: IL8 kBRE (dsDNA)
# DNA 1: AATCGTGGAATTTCCTCTG
# DNA 2: CAGAGGAAATTCCACGATT
# B6: IL8 kBRE 16 bp crystal DNA (dsDNA)
# DNA 1: ATCGTGGAATTTCCTC
# DNA 2: GAGGAAATTCCACGAT
# B7: RELB kBRE 16 bp crystal DNA (dsDNA)
# DNA 1: CCGGGGAATTCCGCCG
# DNA 2: CGGCGGAATTCCCCGG
# B8: CCL2 kBRE 16 bp crystal DNA (dsDNA)
# DNA 1: AGTGGGAATTTCCACT
# DNA 2: AGTGGAAATTCCCACT
# Assays:
# full-length GR [1] = biological target: T1, full-length GR (Homo sapiens, UniProt P04150 1-777); test: fluorescence polarization; settings: triamcinolone acetonide; Fig. 2d legend gives 35 nM; FP: 10 nM 6-FAM dsDNA, 100 mM NaCl, 20 mM Tris-HCl pH 7.4, 5% glycerol, temperature not stated; NMR: 20 mM phosphate pH 6.7, 100 mM NaCl, 1 mM TCEP, 10% D2O …
# GR DBD [2] = biological target: T2, GR DBD (Homo sapiens, UniProt P04150 417-506); test: X-ray crystallography; 2.40 A refinement; FP: 10 nM 6-FAM dsDNA, 100 mM NaCl, 20 mM Tris-HCl pH 7.4, 5% glycerol, temperature not stated; NMR: 20 mM phosphate pH 6.7, 100 mM NaCl, 1 mM TCEP, 10% D2O, 10 and 25 C (NOESY), 25 C (HSQC); settings: protein: recombinant; tags: N-terminal 6xHis with TEV site
# GR DBD [3] = biological target: T2, GR DBD; test: fluorescence polarization; two-site binding curve; Kd in Supplementary Table 5; FP: 10 nM 6-FAM dsDNA, 100 mM NaCl, 20 mM Tris-HCl pH 7.4, 5% glycerol, temperature not stated; NMR: 20 mM phosphate pH 6.7, 100 mM NaCl, 1 mM TCEP, 10% D2O, 10 and 25 C (NOESY), 25 C (HSQC); settings: protein: recombinant, tags: N-terminal 6xHis with TEV site, blunt
# GR DBD [4] = biological target: T2, GR DBD; test: X-ray crystallography; 2.20 A; FP: 10 nM 6-FAM dsDNA, 100 mM NaCl, 20 mM Tris-HCl pH 7.4, 5% glycerol, temperature not stated; NMR: 20 mM phosphate pH 6.7, 100 mM NaCl, 1 mM TCEP, 10% D2O, 10 and 25 C (NOESY), 25 C (HSQC); settings: protein: recombinant; tags: N-terminal 6xHis with TEV site
# full-length GR [5] = biological target: T1, full-length GR; test: fluorescence polarization; triamcinolone acetonide; FP: 10 nM 6-FAM dsDNA, 100 mM NaCl, 20 mM Tris-HCl pH 7.4, 5% glycerol, temperature not stated; NMR: 20 mM phosphate pH 6.7, 100 mM NaCl, 1 mM TCEP, 10% D2O, 10 and 25 C (NOESY), 25 C (HSQC); settings: protein: recombinant; tags: N-terminal 6xHis; chain copies: 2; label: 5'-FAM on strand 1; blunt
# GR DBD [6] = biological target: T2, GR DBD; test: X-ray crystallography; 1.85 A; FP: 10 nM 6-FAM dsDNA, 100 mM NaCl, 20 mM Tris-HCl pH 7.4, 5% glycerol, temperature not stated; NMR: 20 mM phosphate pH 6.7, 100 mM NaCl, 1 mM TCEP, 10% D2O, 10 and 25 C (NOESY), 25 C (HSQC); settings: protein: recombinant; tags: N-terminal 6xHis with TEV site
# GR DBD [7] = biological target: T2, GR DBD; test: X-ray crystallography; 2.25 A; FP: 10 nM 6-FAM dsDNA, 100 mM NaCl, 20 mM Tris-HCl pH 7.4, 5% glycerol, temperature not stated; NMR: 20 mM phosphate pH 6.7, 100 mM NaCl, 1 mM TCEP, 10% D2O, 10 and 25 C (NOESY), 25 C (HSQC); settings: protein: recombinant; tags: N-terminal 6xHis with TEV site
# T2 sequence (P04150 417-506): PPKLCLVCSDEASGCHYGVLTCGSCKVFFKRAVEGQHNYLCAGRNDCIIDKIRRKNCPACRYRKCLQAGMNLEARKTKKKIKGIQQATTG
# T1 sequence (P04150 whole entry): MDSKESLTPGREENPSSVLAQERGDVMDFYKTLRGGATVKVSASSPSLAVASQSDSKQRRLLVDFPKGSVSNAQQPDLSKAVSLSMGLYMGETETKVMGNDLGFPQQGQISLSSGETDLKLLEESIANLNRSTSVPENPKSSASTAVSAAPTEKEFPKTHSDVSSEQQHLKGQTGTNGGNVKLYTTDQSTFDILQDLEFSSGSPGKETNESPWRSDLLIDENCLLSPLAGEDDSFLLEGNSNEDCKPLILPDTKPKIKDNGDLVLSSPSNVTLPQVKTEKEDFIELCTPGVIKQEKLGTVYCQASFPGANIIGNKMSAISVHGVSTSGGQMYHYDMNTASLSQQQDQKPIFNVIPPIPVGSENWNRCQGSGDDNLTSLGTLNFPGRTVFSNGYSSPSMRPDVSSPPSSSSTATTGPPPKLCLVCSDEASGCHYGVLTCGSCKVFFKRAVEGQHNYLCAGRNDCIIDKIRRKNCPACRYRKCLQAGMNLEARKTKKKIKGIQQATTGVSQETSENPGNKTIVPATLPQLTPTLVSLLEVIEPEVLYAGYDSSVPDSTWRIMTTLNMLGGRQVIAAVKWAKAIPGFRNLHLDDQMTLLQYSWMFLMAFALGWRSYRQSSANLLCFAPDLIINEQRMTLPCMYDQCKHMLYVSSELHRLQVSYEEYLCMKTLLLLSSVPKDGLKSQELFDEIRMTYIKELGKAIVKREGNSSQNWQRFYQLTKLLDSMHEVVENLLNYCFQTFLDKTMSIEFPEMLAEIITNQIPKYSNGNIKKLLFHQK
molecule,measurement,setting,value
SGK1 (+)GRE,Kd,full-length GR [1],34 nM
B1,binding result,GR DBD [2],binds
B2,binding result,GR DBD [3],binds
B3,binding result,GR DBD [3]; label: 5'-FAM on strand 1,binds
B4,binding result,GR DBD [4],binds
B5,Kd,full-length GR [5],51 nM
B6,binding result,GR DBD [6],binds
B7,binding result,GR DBD [7],binds
B8,binding result,GR DBD [4],binds
